Experimental data: FireProtDB
Values joined by “and” are separate entries in the source; they are usually repeats but may differ in a detail not shown here. Equal entries are not always repeated.

[1] = Saccharomyces cerevisiae (strain ATCC 204508 / S288c), pH 6, 20 °C, GdnHCl, Fluorescence, Sodium phosphate 0.1 M, reversible: yes
[2] = Saccharomyces cerevisiae (strain ATCC 204508 / S288c), pH 7, 25 °C, GdnHCl, CD, Tris 20 mM, NaCl 40 mM, reversible: yes
[3] = Saccharomyces cerevisiae (strain ATCC 204508 / S288c), pH 7.5, 22 °C, GdnHCl, CD, Tris 20 mM, NaCl 40 mM
[4] = Methanobacterium formicicum, pH 7.2, 25 °C, GdnHCl, CD, potasssium phosphate 20 mM, KCl 200 mM, reversible: yes
[5] = Saccharomyces cerevisiae (strain ATCC 204508 / S288c), pH 6, 46.5 °C, Thermal, Absorbance, Sodium phosphate 100 mM, reversible: yes, structure 1YCC
[6] = Saccharomyces cerevisiae (strain ATCC 204508 / S288c), pH 6, Thermal, Absorbance, Sodium phosphate 100 mM, reversible: yes, structure 1YCC
[7] = Cyprinus carpio, pH 7.5, Thermal, CD, Sodium phosphate 10 mM, CaCl2 0.00001 M

Chain of Cytochrome c isoform 1 N58G|C108A, P00044 N58G C108A (P00044 whole entry N58G/C108A, canonical isoform): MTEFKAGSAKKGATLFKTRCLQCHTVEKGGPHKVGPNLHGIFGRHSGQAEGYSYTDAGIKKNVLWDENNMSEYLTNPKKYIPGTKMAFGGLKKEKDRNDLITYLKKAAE
Chain of Parvalbumin beta wild type, P02618 (P02618 whole entry): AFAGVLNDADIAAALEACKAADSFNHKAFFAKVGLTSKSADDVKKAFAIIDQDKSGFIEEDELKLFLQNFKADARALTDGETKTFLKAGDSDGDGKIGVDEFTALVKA
Chain of Cytochrome c isoform 1 wild type, P00044 (P00044 whole entry, canonical isoform): as the sequence (P00044 whole entry N58G/C108A, canonical isoform) above, with G58N, A108C counted along it
Chain of Cytochrome c isoform 1 H39P|N58I, P00044 H39P N58I (P00044 whole entry H39P/N58I, canonical isoform): as the sequence (P00044 whole entry N58G/C108A, canonical isoform) above, with H39P, G58I, A108C counted along it
Chain of Archaeal histone B wild type, P48784 (P48784 whole entry): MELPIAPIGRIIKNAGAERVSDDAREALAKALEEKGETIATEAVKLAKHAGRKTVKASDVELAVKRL

Cytochrome c isoform 1 wild type, P00044
unfolding free energy (Saccharomyces cerevisiae (strain ATCC 204508 / S288c), pH 4.6, 25 °C, Thermal, Absorbance, Sodium acetate 100 mM, reversible: yes): 5.3 kcal/mol | unfolding free energy (Saccharomyces cerevisiae (strain ATCC 204508 / S288c), pH 4.6, 25 °C, Thermal, CD, Sodium acetate 100 mM, reversible: yes): 5.3 kcal/mol | unfolding free energy (Saccharomyces cerevisiae (strain ATCC 204508 / S288c), pH 4.6, 27 °C, GdnHCl, CD, Sodium acetate 50 mM, reversible: yes): 5.6 kcal/mol and 15 kcal/mol | denaturant midpoint (higher = more stable) [1]: 1.07 M | unfolding free energy [1]: 3.6 kcal/mol | unfolding free energy (Saccharomyces cerevisiae (strain ATCC 204508 / S288c), pH 6, 25 °C, Thermal, Absorbance, Sodium phosphate 100 mM, reversible: yes): 3.8 kcal/mol | denaturant m value [2]: 3.71 kcal/mol/M | denaturant midpoint (higher = more stable) [2]: 1.06 M | unfolding free energy [2]: 3.93 kcal/mol | denaturant m value [3]: 4.24 kcal/mol/M | denaturant midpoint (higher = more stable) [3]: 1.19 M | unfolding free energy [3]: 5.05 kcal/mol

Archaeal histone B wild type, P48784
denaturant m value [4]: 3.4 kcal/mol/M | unfolding free energy [4]: 5.7 kcal/mol and 10.8 kcal/mol

Cytochrome c isoform 1 H39P|N58I, P00044 H39P N58I
ddG of mutation (higher = less stable) [5]: 0.8 kcal/mol | heat capacity change of unfolding [5]: 2 kcal/mol/K | Tm [6]: 43.1 °C | change of melting temperature, mutant - wild type (higher = more stable) [6]: -3.4 °C | heat capacity change of unfolding [6]: 2 kcal/mol/K | unfolding enthalpy (van 't Hoff) [6]: 61 kcal/mol

Parvalbumin beta wild type, P02618
Tm [7]: 90 °C | heat capacity change of unfolding [7]: 1.1 kcal/mol/K | unfolding enthalpy (calorimetric) [7]: 120 kcal/mol | Tm (Cyprinus carpio, pH 7.5, Thermal, CD, Sodium phosphate 10 mM, EDTA 5 mM): 32 °C | Tm (Cyprinus carpio, pH 7.5, Thermal, CD, Sodium phosphate 10 mM, NaCl 2 M): 55 °C

Cytochrome c isoform 1 N58G|C108A, P00044 N58G C108A
ddG of mutation (higher = less stable) [5]: -0.9 kcal/mol | heat capacity change of unfolding [5]: 2 kcal/mol/K | Tm [6]: 50.1 °C | change of melting temperature, mutant - wild type (higher = more stable) [6]: 3.6 °C | heat capacity change of unfolding [6]: 2 kcal/mol/K | unfolding enthalpy (van 't Hoff) [6]: 50 kcal/mol

QQHADPICNKPCKTHDDCSGAWFCQACWNSARTCGPYVG [Metallocarboxypeptidase inhibitor wild type]
denaturant midpoint (higher = more stable) (Solanum tuberosum, pH 8.4, 23 °C, GdnHCl, Fluorescence, Tris-HCl 0.1 M, whole UniProt chain shown): 1.45 M | denaturant midpoint (higher = more stable) (Solanum tuberosum, pH 8.4, 23 °C, GdnSCN, Fluorescence, Tris-HCl 0.1 M, whole UniProt chain shown): 0.7 M
